Assay: yeast display, Sf9 membrane polyspecificity reagent, FACS + sequencing; frameworks hold sequencing errors
Summary of the method: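 Sorting gates, low and high (top ~1%), were placed on anti-HA fluorescence to track expression and on streptavidin fluorescence to track reagent binding. A clone's polyreactivity label is taken from the gate it came out of. The reagent was 10% biotinylated, detergent-solubilized Sf9 membrane, applied for 1 hour at 4 °C to galactose-induced yeast display cells.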

Sequence	polyreactivity (PSR sort gate)
QVQLVESGGGLVQAGGSLRLSCTASGIIFGTYAMGWYRQAPGKERELVAAISSSGVSTYYADSVKGRFTISRDNAKNTVYLQMNSLKPEDTAVYYCAAPLHYGYYYWGQGTQVTVSS	high polyreactivity
QVQLVESGGGLVQAGGSLRLSCAASGSTLAVYAMGWYRQAPGKEREFFAAISWSGVSTYYADSVKGRFTISRDNAKNTVYLQMNSLKPEDTAVYYCAAKRVRALYGGSEGGYWGQGTQVTVSS	low polyreactivity
QVQLVESGGGLVQAGGSLRLSCAASGRTFYAYTMGWYRTAPGKERELVAAITRRGGSTYYADSVKGRFTISRDNAKNTVYLQMNSLKPEDTAVYYCAASYSHRNYGLTYDYWGQGTQVTVSS	high polyreactivity
QVQIVESRGCLVQAGGSLRLICAASGSIFLANAMGWYRQAPRKEREFVPAITSSGGSTYYADSVKGRFTISRDNAKNSVYLQMNSLKPEDTAVYYCNVRPRYRWRSTPYGYWGQGTQVTVSS	high polyreactivity
QVQLVESGGGLVQAGGSLRLCCAASGFTFSWYAMGWYRQAPGKERELVAAISSSGGSTYYADSVKGRFTISRDNAKNTVYLQMYSLKPEDTAVYYCNAYRSASVVVGYDYWGQGTQVTVSS	high polyreactivity
QVQLVESGGGLVQAGGRLRLSCAASGFIYRPYLMGWYRQATGKEMEFVAAISGRGGSTYYADSVKGRFTISRDNAKKTVYLQMNSLKPEDTAVYYCNAVYIYTGVGYNYWGQGTQVTVSS	high polyreactivity
QVQLVESGGGLVQAGGSLRLSCAASGRTLFYYTMGWYRQAPGKERELVAAISSGDSTNYADSVKGRFTISRDNAKNTVYLQMNRLKPEDTAVYYCATQYLLDYKKTYRTYYSPYDYWGQGTQVTVSS	low polyreactivity
QVQLVESGGGLVQAGGSLRLSCAASGSTISGNAMGWYRQAPGKERELVAAISQSGGSTYYADSVKGRFTISRDNAKNTVYLQMNSLKPEDTAVYYCNRLYYFLARRMDSWGQGTQVTVSS	high polyreactivity
QVQLVESGGGLVQAGGSLRLSCAASGNIFFSNAMGWYRQAPGKERELVASISQSGGSTYYADSVKGRFTISRDNAKNTVYLQMNSLKPEDTAVFYCAATQVRRGPAWGRDYWGQGTQVTVSS	low polyreactivity
QVQLVESGGGLVQAGGSLRLCCAASGRTFPYYAMGWYRQAPGKERELVAAISSSGGRTYYADSVKGRFTISRDNAKNTVYLQMNSLKPEDTAVYYCNVDAWYPYQGFLVGYYYWGQGTQVTVSS	low polyreactivity
QVQHVESRGGLVQAGGSLRLSCADSGSIFRAYAKGWYIQAPGKERELVADISRSGGSTYYADSVKGRFTISRDNANNTVYLQMNRLNPEDTAVYYCAAVFYLYSNLYGEYEYWGQGTQVTLSS	low polyreactivity
QVQLVESGGGLVQAGGRLRLSCAASVRILGKYAMGWYRQAPGKERELVAAIRLRGGSTYYADSVKGRFTISRDNAKNTVYLQMNSLKPEDTAVYYCAARYWDRSQAYYYWGQGTQVTVSS	high polyreactivity
QVQLVESGGGLVQAGGSLRLSCAASGSTYWNAMGWYRQAPGKERELVAAITFRGGSTYADSVKGRFTISRDNAKNTVYLQMNSLKPEDTAVYYCAKASSHRWYNVRNRAGYDYWGQGTQVTVSS	high polyreactivity
QDQLVESGGGLVQEGGSLRLSCAASGSTFPYNAMGWYRQAPGKERELVAAITRRAGRTYYADSVKGRFTISRDNAKNTVYLQLNSLKTEDTAVYYCAKSYQRGVYHYVYWGQVTQVTVSS	high polyreactivity
QVQLVESGGGLVQAGGSLRLSCAASGRIFDYYAMGWYRQAPGKERELVARITSGGTTNYADSVKGRFTISRDNAKNTVYLQMNSLKPEDTAVYYCNAQDYSDPLQMDYWGQGTQVTVSS	low polyreactivity
QVQLVESGGGLVQAGGSLRLSCAASGSTFSYNAMGWYRQAPGKERELVAAISRGGITNYADSVKGRFTISRDNAKNTVYLQMNSLKPEDTAVYYCAVRHVWPWQGYDYWGQGTQVTVSS	low polyreactivity
QVQLVESGGGLVQAGGSLRLSCAASGRIFRWNAMGWYRQAPGKERELVAAISSSGGRTYYADSVKGRFTISRDTAKNTVYLQMNSLKPEDTAVYYCAAYPFSDEYDYWGQGTQVTVSS	high polyreactivity
QVQLVESGGGLVQAGGSLRLSCAASGSIFGGNTMGWYRQAPGKERELVAAISRSGGSTYYADSVKGRFTISRDNAKNTVYLQMNSLKPEDTAVYYCNRKQAGHAQGYDYWGQGTQVTVSS	high polyreactivity
QVQLVESGGGLVQAGGSLRLSCAASGRTFRRYAMGWYRQAPGKERELVAAITGAGSTYYADSVKGRFTISRDNAKNTVYFQMNSLKPEDTAVYYCAATPDPPHSYEYWGQGTKVTVSS	low polyreactivity
QVQLVESGGGLVQAGGSLRLSCAASGIIFYVYAMGWYRQAPGKERELVATITRRDDSTYYADSVKGRFTISRDNAKNTVYLQMNSLKPEDTAVSYCNADFWLLSEYDYWGQGTQVTVSS	low polyreactivity
QVQLVESGGGLVQAGGSLRLSCAASGFISKYYAMGWSRQAPGKERELVASISRDGSTSYADSVKGRFTISRDNAKNTVYLQMNSLKPEDTAVYYCAAPRRWGDKYSFGYWGQGTQVTVSS	high polyreactivity
QVQLVESGGGLVQAGGSLRLSCPASGRIFYVYAMGWYRQAPGKERELVAAITSSGGSTNYADSVKGRFTISRDNAKNTVYLQMNSLKPEDTAVYYCAAKPYYIPTRTYSHYNFWGQGTQVTVSS	high polyreactivity

Sequence	polyreactivity (PSR sort gate)
QVQLVESGGGLVQAGGSLRLSCAASGIQVYNAMGWYRQAPGKERELVAAISARGGRTYYADSVKGRFTISRDNAKNTVYLQMNSLKPEDTAVYYCATLETTGVNYWGQGTLVTVSS	high polyreactivity
QVQLVESGGGLVQAGGSLRLSCAASGSTFDSNAMGWYRQAPGKERELVAGITIGGSTNYADSVKGRFTISRDNAKNTVFLQMNSLKPEDTAVYYCNVVKYVYIYSYWEYYYWGQGTQVTVSS	low polyreactivity
QVQLVESGGGLVQAGGSLRLSCAASGSTFGGYAMGWYIQAPGKERELVADISRRVGSTYYADSVKGRFTISRDNAKNTVYLQMNSLKPEDTAVYYCNVPRIVIISGPSSPFRYYWGQGTQVTVSS	high polyreactivity
QVQLVESGGGLVQAGGSLRVSCAASGSTFYEYAMGWYRQAPGKERELVAAITRGGTTYYADSVKGRFTISRDNAKNTDYYQMNSLKPEDTAVYYCAARTRGFTKLGYWGQGTQVTVSS	high polyreactivity
QVQLVESGGGLVQSGGSLRLTCAASGSILWYNGMGWYSQAPGKERELVAAITSGGSTNYADSVKGRFTISRDNAKNTFYLHMNSLKPEDTEVYYCKARPYWFGSYGYWGQGTKVTVSS	low polyreactivity
QVQLVESGGGLVQAGGSLRLSCAASGSTFRYNTMGWYRQAPGKERELVAAISSGGGTHFADSVKGRFTISRDNAKNTVYLQMNSLKPEDTAVYYCAAQSRYRYQFYSGLEYDYWGQGTQVTVSS	low polyreactivity
QVQLVESGGGLGQAGGSLSLSCAAYGRIYSRYAMGWYRQAPGKERELVAAINSGGITNYADSVKGRFTISRDNAKNTVYLQMNSLNPEDTAVYYCAAQARRSWGKYYYWGQGTQVPVSS	high polyreactivity
QVQLVESGGGLVQAGGSRRLSCAASGIIFAYYAMGWYRQAPGKERELVASISSTGGSTYYADSVKGRFTISRDNAKNTVYLQMNSLKPEDTAVYYCAVDGLPPKDALHLYYYWGQVTQVTVSS	low polyreactivity
QVQLVESGGGLVQAGGSLRLSCAASGRTFFVNAMGGYRQAPGKERELVAAITWSGGSTSYADSVKGRFTISRDKAKNNVSLQLNSLKPEDTAVYYCAAEYYSYSHSYYYYGYEYWGQGTQVNVSS	high polyreactivity
QVQLVESGGGLVQAGGSLRLSCAASGRTFSVYAMGSSRHAPGKERELVAAITESGGSTYYADSVKGRFTISRDNAKITVYLQMNSLKPEDTAVYYCNAGPYYWYVYWGQGTQVTVSS	low polyreactivity
QVQLVESGGGLVQAGGSLRLSCAGSGSTSYNDMGWYRQAPGKEREMGASITSSGDDTYYADSVKGRFTISRDNAKNTVYLQMNSLKPEDTAVYYCAAEDYHRHVGSDFVIDYDYWGQGTQVTVSS	low polyreactivity
QVQLVESGGGLVQAGGSLRLSCAASGSTFGWYAMGWYRQAPGKERELVAAINSSGDRTYYADSVKGRFTISRDNAKINVYLQMNSLKPEDTAVYYCAATYWARNWRYDYWGQGTQVTVSS	high polyreactivity
QVQLVESGGGLVQAGGSLRLSCAASGSTFYIYAMGWYRQAPGKERELVASIRLSTGRTNYADSVKGRFTISRDNAKNTVYLQMNSLKPEDTAVYYCAAAGYRGGGYWGQGTQVTVSS	high polyreactivity
QVQLVESGGGLVQAGGSLRLSCAASGITFRCNAMGWYRQAPGKERELVASITGGTDTYYADSVKGRFTISRDNAKKTVYLQMNSLKPEASAVYYCAAPSNQYFRYKRRYYYWGQGTQVTVSS	high polyreactivity
QVQLVESGGGLVQAGGSLRLICAASGNTFKYNAMGWYRQAPGKERELVAAITWRGTSTSYADSVKGRFTISRDNAKNTVYLQMNSLKAEDTAFYYSNAVYYWYGRVAYSFGYWGQGTQVTVSS	high polyreactivity
QVQLVESGGGLVQAGGSLRLSCASSGRIFHVYAMGWYRQAPGKERELVADITWSGGSTYYADSVKGRFTISRDNAKNTVYLQMNSLKPEDTAVYYCAASVLYGRHYSYGYWGQGTQVTVSS	high polyreactivity
QVQLVESGGGLVQAGGSLRLSCAASGSIFYYNAMGWYRQAPGKERELVAGISYTGGSTYYADSVKGRFTISRDNAKNTVYLQMNSLKPEDTAVYYCAAVRQYYFRYKINTSGYQYYYWGQGTQVTVSS	high polyreactivity
QVQLVESGGGLVQAGGSLRLSCAASGGTFSYYAMGWYRQAPGKERELVAAISGNGDTTYYADSVKGRFTSSRDNAKNTVYLQMNSLKPEATAVYYCNVFVSAGEEDEYWGQGTQVTVSS	low polyreactivity
QVQLVESGGGLVQAGGSLRLSCAASGFIFAYYAMGWYRQAPGKERELVAAITIDGSTNYADSVKGRFTISRDNAKNTVYVQMNSLKPEDSAVYYCAAAEHPPVWYGYWGQGTQVTVSS	low polyreactivity
QVQLVESGGGLVQAGGSLRLSCAASGSTFDQYGMGWYRQAPGKDRELVAAITSVGGTNYADSVKGRFTISRDNAKKTVYLQMNSLKPEDTAVYYCARRYPKNHKAPGRMDYWGQGTQVTVSS	low polyreactivity
QVQLVESGGGLFQAGVSLRISCAASGFIFDRNAMGWYRQAPGKERELVAVINSGGSTYYADSVKGRFTISRDNAKNTVYLQMNCLKPEDTAVYYCAAVRSRYGREYYYWGQGTQVTVSS	high polyreactivity
